For assay [1], the target named is synthetic IgA1 hinge-region glycopeptide linked to BSA with 3 GalNAc residues (HR-GalNAc-BSA) (bovine) (UniProt P02769). In words: ELISA, wells with HR-GalNAc-BSA treated with unlabeled HAA (20 ug/ml); competitor: IgG from cell lines of IgAN patients.
Assay [2] addresses Gal-deficient IgA1 (Mce) myeloma protein (human) (UniProt P01876). Nature of the assay: Western blot, membrane pre-incubated with unlabeled HAA (20 ug/ml); competitor: IgG purified from the serum of an IgAN patient; densitometry. (In general: In western blotting, separated proteins are transferred to a membrane and probed.)

In turn, Helix aspersa agglutinin (HAA) yielded a percent inhibition of IgG binding in assay [1] of 78%. In assay [2], this substance had a percent reduction of IgG binding of 66%.

The values above are taken from US20120266260A1.
